Article PMC11417369, “DNA sequence and chromatin differentiate sequence-specific transcription factor binding in the human malaria parasite Plasmodium falciparum”

B1: CACACA_site2826 (dsDNA)
DNA 1: AGATATAAGAAAAGCACACACACACCCAAAAAAAAA
DNA 2: TTTTTTTTTGGGTGTGTGTGTGCTTTTCTTATATCT
B2: CACACA_negctrl_site189 (dsDNA)
DNA 1: AAGTTTATTATATATAAATTATTATATATATATATA
DNA 2: TATATATATATATAATAATTTATATATAATAAACTT
B3: CACACA_negctrl_site593 (dsDNA)
DNA 1: TAATTTTTGTAAACAGTCATGGATTCAAAAAAAAAA
DNA 2: TTTTTTTTTTGAATCCATGACTGTTTACAAAAATTA
B4: CACACA_site8849 (dsDNA)
DNA 1: AAAAAAAAAAAACACACACACACACCGATACATACA
DNA 2: TGTATGTATCGGTGTGTGTGTGTGTTTTTTTTTTTT
B5: CACACA_site1716 (dsDNA)
DNA 1: GGGGGGGGAGGGTGAATACACACGTAATAATCATAA
DNA 2: TTATGATTATTACGTGTGTATTCACCCTCCCCCCCC
B6: CACACA_negctrl_site1587 (dsDNA)
DNA 1: TTATAATATAAAAATAAATAAATAAATAAATAAATA
DNA 2: TATTTATTTATTTATTTATTTATTTTTATATTATAA
B7: CACACA_site6254 (dsDNA)
DNA 1: TATTTATTAAGACACACACACACACGCACAAAATAA
DNA 2: TTATTTTGTGCGTGTGTGTGTGTGTCTTAATAAATA
B8: CACACA_negctrl_site699 (dsDNA)
DNA 1: TTTTATTTCAATCCACAAGGGATAAAATAAAGTTTT
DNA 2: AAAACTTTATTTTATCCCTTGTGGATTGAAATAAAA
B9: CACACA_negctrl_site1242 (dsDNA)
DNA 1: TATTATTGTCTTTCAAAAAAAAAAAAAAAAAAAAAA
DNA 2: TTTTTTTTTTTTTTTTTTTTTTGAAAGACAATAATA
B10: CACACA_negctrl_site737 (dsDNA)
DNA 1: TTTTTAATTCAAAAAATAATATATTATATTTCAAAT
DNA 2: ATTTGAAATATAATATATTATTTTTTGAATTAAAAA
B11: CACACA_site1515 (dsDNA)
DNA 1: AGTACAGACATAGACACACACACACCCATAAAAAAA
DNA 2: TTTTTTTATGGGTGTGTGTGTGTCTATGTCTGTACT
B12: CACACA_site6387 (dsDNA)
DNA 1: TTAACAAATAGACACACACACACACGCAAAAAAAAA
DNA 2: TTTTTTTTTGCGTGTGTGTGTGTGTCTATTTGTTAA
B13: CACACA_site8824 (dsDNA)
DNA 1: GATAATTATGGACACACACACACACCCACAACTAAA
DNA 2: TTTAGTTGTGGGTGTGTGTGTGTGTCCATAATTATC
B14: CACACA_negctrl_site12 (dsDNA)
DNA 1: TTCTTCTAATCCTTTTATCTCATTAAAAAAATATAA
DNA 2: TTATATTTTTTTAATGAGATAAAAGGATTAGAAGAA
B15: CACACA_site8688 (dsDNA)
DNA 1: AAAACACGCGGACACACACACACACCCACCCATATA
DNA 2: TATATGGGTGGGTGTGTGTGTGTGTCCGCGTGTTTT
B16: CACACA_negctrl_site149 (dsDNA)
DNA 1: TCTTATTCAAACGTAAAACGAAGAAGAAAAAAAAAA
DNA 2: TTTTTTTTTTCTTCTTCGTTTTACGTTTGAATAAGA
B17: CACACA_negctrl_site1662 (dsDNA)
DNA 1: TTATTCAGAAAAAAAAAAAAAAAAAAAAAAAAAAAA
DNA 2: TTTTTTTTTTTTTTTTTTTTTTTTTTTTCTGAATAA
B18: CACACA_site4405 (dsDNA)
DNA 1: TATATATATCTGTACACACACACATATAAATAAATA
DNA 2: TATTTATTTATATGTGTGTGTGTACAGATATATATA
B19: CACACA_site5303 (dsDNA)
DNA 1: CCCCCCCACGGACACACACACATACATACCACATAT
DNA 2: ATATGTGGTATGTATGTGTGTGTGTCCGTGGGGGGG

Legend:
Experiment in all cases: gcPBM; about 25 ug protein; PBS, 1% milk, 0.2 mg/ml BSA, salmon testes DNA, 0.03% Triton X-100
Settings in all cases: tags: N-terminal GST (pGEX-4T-1), kept; label: surface-attached array probe
AP2-HC D1 = target: T1, AP2-HC D1 (Plasmodium falciparum, UniProt Q8IKR9 1316-1374)
T1 sequence: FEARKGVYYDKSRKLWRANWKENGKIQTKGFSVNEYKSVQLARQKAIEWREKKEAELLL

AP2-LT D1 = target: T2, AP2-LT D1 (Plasmodium falciparum, UniProt Q8IAM1 2520-2577)
T2 sequence: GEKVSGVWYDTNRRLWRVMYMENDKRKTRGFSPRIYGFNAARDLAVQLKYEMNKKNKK

PF3D7_0420300 D1 = target: T3, PF3D7_0420300 D1 (Plasmodium falciparum, UniProt Q8I1N6 1956-2015)
T3 sequence: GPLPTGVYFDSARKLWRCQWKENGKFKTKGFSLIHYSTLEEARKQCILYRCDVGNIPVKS

Binder | binding signal (AP2-HC D1) | binding signal (AP2-LT D1) | binding signal (PF3D7_0420300 D1)
B1 | 12.1 ln median PBM intensity, better of two orientations | – | –
B2 | – | 8.75 ln median PBM intensity, better of two orientations | 9.02 ln median PBM intensity, better of two orientations
B3 | – | 8.58 ln median PBM intensity, better of two orientations | 8.81 ln median PBM intensity, better of two orientations
B4 | 12 ln median PBM intensity, better of two orientations | – | –
B5 | – | 10 ln median PBM intensity, better of two orientations | 10.5 ln median PBM intensity, better of two orientations
B6 | – | 8.74 ln median PBM intensity, better of two orientations | 9.04 ln median PBM intensity, better of two orientations
B7 | 12.1 ln median PBM intensity, better of two orientations | – | –
B8 | – | 8.46 ln median PBM intensity, better of two orientations | 8.71 ln median PBM intensity, better of two orientations
B9 | – | 8.23 ln median PBM intensity, better of two orientations | 8.46 ln median PBM intensity, better of two orientations
B10 | – | 8.36 ln median PBM intensity, better of two orientations | 8.79 ln median PBM intensity, better of two orientations
B11 | 12.1 ln median PBM intensity, better of two orientations | – | –
B12 | 12 ln median PBM intensity, better of two orientations | – | –
B13 | 12 ln median PBM intensity, better of two orientations | – | –
B14 | – | 8.51 ln median PBM intensity, better of two orientations | 8.97 ln median PBM intensity, better of two orientations
B15 | – | 10.7 ln median PBM intensity, better of two orientations | 10.6 ln median PBM intensity, better of two orientations
B16 | – | 8.7 ln median PBM intensity, better of two orientations | 8.92 ln median PBM intensity, better of two orientations
B17 | – | 8.18 ln median PBM intensity, better of two orientations | 8.5 ln median PBM intensity, better of two orientations
B18 | – | 10.1 ln median PBM intensity, better of two orientations | 10 ln median PBM intensity, better of two orientations
B19 | – | 11.2 ln median PBM intensity, better of two orientations | 11 ln median PBM intensity, better of two orientations
